{"source": "paper doi:10.1101/2021.04.22.440356", "target": "human ubiquitin (15N-ubiquitin of the peptide titration) (human) (UniProt P0CG48)", "assay": "NMR titration", "data": [{"substance": "short peptide from the YUH1 N-terminus (1-10) (from UniProt P35127 1-10)", "values": [{"measurement": "Kd", "value": 180, "unit": "µM"}]}]}
